Measurements as given in patent publication US20100280101, “METHOD OF INHIBITING CANCER CELL PROLIFERATION, PROLIFERATION INHIBITOR AND SCREENING METHOD” (University of Occupational and Environmental Health Japan, published 2010).

T1: ZNF143 (UniProt P52747 SEQ:1-638)
T1 sequence: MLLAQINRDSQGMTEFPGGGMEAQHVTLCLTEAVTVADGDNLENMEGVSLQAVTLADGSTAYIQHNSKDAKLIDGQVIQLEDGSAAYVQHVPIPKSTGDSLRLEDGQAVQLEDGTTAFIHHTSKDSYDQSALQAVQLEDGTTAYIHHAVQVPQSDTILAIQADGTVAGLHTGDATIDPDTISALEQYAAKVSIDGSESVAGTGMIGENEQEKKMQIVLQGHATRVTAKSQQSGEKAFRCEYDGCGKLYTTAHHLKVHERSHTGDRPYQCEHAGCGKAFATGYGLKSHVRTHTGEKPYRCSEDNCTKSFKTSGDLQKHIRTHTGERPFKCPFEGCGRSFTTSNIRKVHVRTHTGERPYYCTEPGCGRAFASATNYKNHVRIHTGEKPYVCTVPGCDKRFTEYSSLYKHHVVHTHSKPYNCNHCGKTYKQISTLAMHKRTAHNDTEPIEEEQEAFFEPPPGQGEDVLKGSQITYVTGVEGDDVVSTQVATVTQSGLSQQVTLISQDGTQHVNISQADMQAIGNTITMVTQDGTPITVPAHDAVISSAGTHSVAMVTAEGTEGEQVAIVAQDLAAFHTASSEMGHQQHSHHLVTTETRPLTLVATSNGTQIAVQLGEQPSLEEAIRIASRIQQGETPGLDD


What was measured:
[1] = target: T1, ZNF143; test: EMSA; also ChIP; binding retained without 5'-terminal 6 bases
[2] = target: T1, ZNF143; test: EMSA; also ChIP

Row | Binder | binding result [1] | binding result [2]
1 | ZNF367 (CDC14B) promoter site (dsDNA) DNA 1: CGGGTCCTTCCCACCTCGCCATTGG DNA 2: CCAATGGCGAGGTGGGAAGGACCCG | binds | 
2 | MCM4 promoter site 2 (dsDNA) DNA 1: TTTCCCGGGGACCCCTGCG DNA 2: CGCAGGGGTCCCCGGGAAA |  | binds
3 | CCNE2 promoter site (dsDNA) DNA 1: CTTCCCACCCGGCCAGGTC DNA 2: GACCTGGCCGGGTGGGAAG |  | binds
4 | RFC2 promoter site (dsDNA) DNA 1: GGTGGAATTCCCATCTTGCAGCCGA DNA 2: TCGGCTGCAAGATGGGAATTCCACC | binds | 
5 | CDCA8 promoter site 1 (dsDNA) DNA 1: ACTACTACTCCCGGCAGGCCTTGTG DNA 2: CACAAGGCCTGCCGGGAGTAGTAGT | binds | 
6 | ESPL1 promoter site 2 (dsDNA) DNA 1: ACTCCCAGCGTGCCGCGCG DNA 2: CGCGCGGCACGCTGGGAGT |  | binds
7 | PFS2 promoter site (dsDNA) DNA 1: TCTCGACTTCCCAAAGTGCTGGGAT DNA 2: ATCCCAGCACTTTGGGAAGTCGAGA | binds | 
8 | PLK1 promoter site 1 (dsDNA) DNA 1: CAGGGCGCTCCCATGGTGCCGCGCG DNA 2: CGCGCGGCACCATGGGAGCGCCCTG | binds | 
9 | MCM2 promoter site (dsDNA) DNA 1: CCTCGGCTTCCCAAAGTGCTGGGAT DNA 2: ATCCCAGCACTTTGGGAAGCCGAGG | binds | 
10 | SPBC25 promoter site (dsDNA) DNA 1: ACTACGAATCCCAGAATGCCCTGTT DNA 2: AACAGGGCATTCTGGGATTCGTAGT | binds | 
11 | UHRF1 promoter site (dsDNA) DNA 1: ACTCCCAGGATGCCCTTCC DNA 2: GGAAGGGCATCCTGGGAGT |  | binds
12 | CDK2 promoter site (dsDNA) DNA 1: CATTGCTTTCCCATCCTGCTACTCA DNA 2: TGAGTAGCAGGATGGGAAAGCAATG | binds | 
13 | CCNF promoter site (dsDNA) DNA 1: ACCCCCAGCTTGCACGGCC DNA 2: GGCCGTGCAAGCTGGGGGT |  | binds
14 | MCM4 promoter site 1 (dsDNA) DNA 1: GTACCCACCCAGCACCGCG DNA 2: CGCGGTGCTGGGTGGGTAC |  | binds
15 | MCM5 promoter site (dsDNA) DNA 1: GTGCCCATTTTGCATTGGG DNA 2: CCCAATGCAAAATGGGCAC |  | binds
16 | CDCA8 promoter site 2 (dsDNA) DNA 1: CCCGCCCTCCCCACCAACCCACCCG DNA 2: CGGGTGGGTTGGTGGGGAGGGCGGG | binds | 
17 | CDC6 promoter site (dsDNA) DNA 1: ACTACGCCTCCCAGCGTGCTTTGCG DNA 2: CGCAAAGCACGCTGGGAGGCGTAGT | binds | 
18 | AURKB promoter site (dsDNA) DNA 1: CCTCGGCTTCCCAAAATGCTGGGAT DNA 2: ATCCCAGCATTTTGGGAAGCCGAGG | binds | 

Row | Binder | binding result [1] | binding result [2]
19 | BIRC5 (survivin) promoter site (dsDNA) DNA 1: GCCCCCACCCTCCACTGGG DNA 2: CCCAGTGGAGGGTGGGGGC |  | binds
20 | CDT1 promoter site 1 (dsDNA) DNA 1: CCCTTCCCTCCCCCCGTGCTCTGCC DNA 2: GGCAGAGCACGGGGGGAGGGAAGGG | binds | 
21 | GTSE1 promoter site (dsDNA) DNA 1: ACTACAATACCCAGGACGCACCCAG DNA 2: CTGGGTGCGTCCTGGGTATTGTAGT | binds | 
22 | CDT1 promoter site 2 (dsDNA) DNA 1: CCTCCCCCCGTGCTCTGCC DNA 2: GGCAGAGCACGGGGGGAGG |  | binds
23 | CDKN2C promoter site (dsDNA) DNA 1: ATCCCCAAAATCCAAGCCA DNA 2: TGGCTTGGATTTTGGGGAT |  | binds
24 | MCM3 promoter site (dsDNA) DNA 1: ACTCCCAGAACGCAATGCC DNA 2: GGCATTGCGTTCTGGGAGT |  | binds
25 | BUB1 promoter site (dsDNA) DNA 1: TCTCCCCACCTGCCTCCCG DNA 2: CGGGAGGCAGGTGGGGAGA |  | binds
26 | WEE1 promoter site (dsDNA) DNA 1: TTAATCTGTCCCTTAATGCACTTAC DNA 2: GTAAGTGCATTAAGGGACAGATTAA | binds | 
27 | CDCA4 promoter site (dsDNA) DNA 1: GCTCCCAGGTCTCCGCGCG DNA 2: CGCGCGGAGACCTGGGAGC |  | binds
28 | CDC2L6 promoter site 1 (dsDNA) DNA 1: AATACAGCTCCCAGGTTACCTCGGG DNA 2: CCCGAGGTAACCTGGGAGCTGTATT | binds | 
29 | ESPL1 promoter site 1 (dsDNA) DNA 1: TTACCCGCCGCGCTGCGCG DNA 2: CGCGCAGCGCGGCGGGTAA |  | binds
30 | CDCA5 promoter site (dsDNA) DNA 1: TGCGCCTCTCCCTTCAGCCCCGGCC DNA 2: GGCCGGGGCTGAAGGGAGAGGCGCA | binds | 
31 | CDCA3 promoter site (dsDNA) DNA 1: GACGTAGTTCCCATAGGCCCTCCAC DNA 2: GTGGAGGGCCTATGGGAACTACGTC | binds | 
32 | PLK1 promoter site 2 (dsDNA) DNA 1: GCTCCCATGGTGCCGCGCG DNA 2: CGCGCGGCACCATGGGAGC |  | binds
33 | CCNA2 promoter site (dsDNA) DNA 1: CAGGCACTGCCCAGCGTGGCGAGCC DNA 2: GGCTCGCCACGCTGGGCAGTGCCTG | binds | 
34 | RFC4 promoter site (dsDNA) DNA 1: CCAGCCTAGCCCACTGTGCATGAAG DNA 2: CTTCATGCACAGTGGGCTAGGCTGG | binds | 
35 | CDC2L6 promoter site 2 (dsDNA) DNA 1: ACTTCATTTCCCAGGAGCCTCCGCG DNA 2: CGCGGAGGCTCCTGGGAAATGAAGT | binds | 
